Reference: patent US20250109186A1
Residue numbers refer to the chain shown, from its start. Like-named read-outs stand apart in the source and are kept apart here.

Columns and labels:
[1] = molecular target: SARS-CoV-2 Omicron BA.1 spike ectodomain (residues 14-1207) with C-terminal His tag (SARS-CoV-2 Omicron BA.1 subvariant)
[2] = molecular target: SARS-CoV-2 Omicron BA.1 RBD (residues 316-526) with C-terminal His tag (SARS-CoV-2 Omicron BA.1 subvariant)
[3] = molecular target: SARS-CoV-2 Omicron XBB.1.5 spike ectodomain (residues 14-1207) with C-terminal His tag (SARS-CoV-2 Omicron XBB.1.5 subvariant)
[4] = molecular target: SARS-CoV-2 Omicron BA.1 RBD (residues 316-526) with C-terminal His tag (SARS-CoV-2 Omicron BA.1 subvariant); assay: SPR (Biacore S200), CM5 chip, His-tagged proteins, 1:1 model
[5] = molecular target: SARS-CoV-2 Omicron XBB.1.5 RBD (residues 315-525) with C-terminal His tag (SARS-CoV-2 Omicron XBB.1.5 subvariant); assay: as above

B1: Nanosota-3A, HA- and His-double-tagged (VHH)
VHH: QVQLQESGGGLVQAGGSLRLSCAASGSIFSPNTMGWFRQALGKQREMVAVISSIASTQYANFVKGRFTITRDNTKNTVHLQMNSLIPEDTAVYYCYAVDKSQDYWGQGTQVTVSS
Q: For B1, which EC50 (read off the curve) [1] is on record?
A: 0.1 µg/mL

B2: Nanosota-3B, HA- and His-double-tagged (VHH)
VHH: B1 VHH with V50F, Q58S
Q: With B2 as the binder, how does the EC50 (read off the curve) [1] read?
A: 0.02 µg/mL

B3: Nanosota-3A with C-terminal His tag (VHH)
VHH: B1 VHH
Q: B3 was tested. Which Kd [2] did it give?
A: 17.3 nM

B4: Nanosota-3C with His6 tag and HA tag (VHH)
VHH: B1 VHH with M47G, V50F, Q58S, A60W, N61L, F62P
Q: With B4 as the binder, how does the EC50 (read off the curve) [3] read?
A: 0.03 µg/mL

Q: What about the Kd [4] of the same binder?
A: 27.3 nM

Q: What about the Kd [5] of the same binder?
A: 2.04 nM
